# From patent US7144986B2, “Polypeptides comprising IL-6 ligand binding receptor domains” (The United States of America as represented by the …, priority 1999, dated 2006)
# Target: recombinant human IL-6 (Homo sapiens, UniProt P05231)
# Assay: Binding of radioiodinated recombinant human IL-6 to synthetic peptide arrays in 96-well microtiter plates
# Settings: Example 1, domain I peptides (IL-6 receptor residues 66–86): truncations and alanine replacements; radiolabeled IL-6 remaining after wash
# Experimental: Synthetic peptide arrays were constructed in 96-well microtiter plates in accordance with the method set forth in WO 91/02714 (Saxinger), and used to test the binding of recombinant human IL-6 that had been labeled with radioactive iodine (radiolabeling by standard methods). After incubating the radiolabeled IL-6 ligand in a well with each synthetic peptide, a washing step was performed to remove unbound label, and the relative level of radioactivity remaining in each well of the plate was evaluated to determine the relative affinity of each peptide for IL-6 ligand.
# Each of the four binding domains was analyzed in detail, which is set forth in these examples. First, serial truncations (or nested truncations) were performed from each end of the peptides to determine the location of the critical binding residues within each domain. Second, each amino acid residue in the critical regions of each domain were serially replaced by an alaninyl residue to indicate whether the side-chain of the residue at each particular location is likely to be essential or important to the mechanism of binding.
# This example employs essentially the same techniques as Examples 1–4 except that fragments of the β-chain of the IL-6 receptor are used. As is known in the art, the β-chain is shared by multiple receptors. Thus, the identified fragments here are effective inhibitors of a multiplicity of binding reactions in addition to the IL-6 ligand:IL-6 receptor interaction.
# recombinant human IL-6, sequence (P05231 30-212): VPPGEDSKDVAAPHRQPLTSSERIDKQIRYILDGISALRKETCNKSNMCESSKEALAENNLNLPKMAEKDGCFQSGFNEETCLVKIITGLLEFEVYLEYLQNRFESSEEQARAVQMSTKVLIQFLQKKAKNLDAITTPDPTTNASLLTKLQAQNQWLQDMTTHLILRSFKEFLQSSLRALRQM
row,Substance,Counts/minute bound [Counts/minute]
1,AAGSHPSRWAGMGRRL [Peptide A6],1753
2,AAGSHPSRWAGMGRRLLLRSV [Peptide A1],10739
3,AAGSHPSRWAGMGRRLLLRSV [Peptide A17],10884
4,AAGSHPSRWAGMGRRLLLRSV [Peptide A33],10213

# Same assay, conditions: Example 2, domain II peptides (IL-6 receptor residues 136–156): truncations and alanine replacements
row,Substance,Counts/minute bound [Counts/minute]
1,PRSTPSLTTKAVLL [Peptide B8],1846
2,PRSTPSLTTKAVLLVRKFQNS [Peptide B1],10790
3,PRSTPSLTTKAVLLVRKFQNS [Peptide B17],12347
4,PRSTPSLTTKAVLLVRKFQNS [Peptide B33],11699
5,TKAVLLVRKFQNS [Peptide B25],5753
6,TKAVLLVRKFQNS [Peptide B26],5226

# Same assay, conditions: Example 3, domain III peptides (IL-6 receptor residues 246–266): truncations and alanine replacements
row,Substance,Counts/minute bound [Counts/minute]
1,SSFYRLRFELRYRAERSKTFT [Peptide C1],14571
2,SSFYRLRFELRYRAERSKTFT [Peptide C17],15127
3,SSFYRLRFELRYRAERSKTFT [Peptide C33],14610

# Same assay, conditions: Example 4, domain IV peptides, D11–D57, separate experiment: truncations and alanine replacements
row,Substance,Counts/minute bound [Counts/minute]
1,GGSLAFGTLLCIAIVLRFKKT [Peptide D11],20349
2,GGSLAFGTLLCIAIVLRFKKT [Peptide D27],21945
3,GGSLAFGTLLCIAIVLRFKKT [Peptide D43],20385
4,LRFKKT [Peptide D42],1958

# Same assay, conditions: Example 5, fragments of the β-chain of the IL-6 receptor
row,Substance,Counts/minute bound [Counts/minute]
1,LTCNILTFGQLEQNVYGITIISGL [Peptide E11],1816
2,SDKAPCITDWQQEDGTVHRTYLRG [Peptide E47],2079

# Same assay, conditions: receptor sequence taken 21 amino acid residues at a time
row,Substance,Initial screening of IL-6 receptor primary sequence for binding of IL-6 ligand
1,AAGSHPSRWAGMGRRLLLRSV [Peptide A1],active binding sequences
2,GGSLAFGTLLCIAIVLRFKKT [Peptide D5],active binding sequences
3,PRSTPSLTTKAVLLVRKFQNS [Peptide B1],active binding sequences
4,SSFYRLRFELRYRAERSKTFT [Peptide C1],active binding sequences
